Our source for the rate of FRET change after EGTA, fast phase (release of Ca^2+ from the N-domain) values is publication doi:10.1101/2024.03.21.586151.

This assay deals with CaM(C110)D with an IAEDANS probe coupled to position 110 (UniProt P0DP23). Put plainly: FRET or BRET.

Consider “CKIIp with a C-terminal Gly-Cys extension labeled with DDPM (peptide)”, for which the rate of FRET change after EGTA, fast phase (release of Ca^2+ from the N-domain) was found to be 5.8 s⁻¹.
